Laboratory results taken from patent publication US5958748, “DNA coding for serine/threonine kinase” (dated 1999).

Target: fused protein of GAL4 DNA binding domain and mouse ATF4 leucine zipper domain (amino acids 298 to 349 in the … (mouse, UniProt P04386))
Test: yeast two-hybrid, colony formation on histidine-, tryptophan-, leucine- medium
Procedure: The site to which ZIP-kinase and ATF4 bind was determined using yeast two-hybrid system. First, variants of mouse ZIP-kinase were prepared: 1) amino acids 278 to 448 of ZIP-kinase (ZIP-kinase 278–448); 2) leucine zipper domain of ZIP-kinase (amino acids 398 to 448) (ZIP-kinase LZ); and 3) a variant of ZIP-kinase in which valine and leucine in the leucine zipper domain were substituted with alanine (ZIP-kinase LA). Each of these variants was designed to produce a chimeric protein with GAL4 trans activating domain, and DNA coding for said chimeric protein was inserted into pACT2 and introduced into yeast strain Y190 together with pAS2-1-ATF4 LZ. The strain was cultivated on histidine+, tryptophan–, leucine–, and histidine–, tryptophan–, leucine– selective media.

binding result: no binding
B1: ZIP-kinase LA (variant of mouse ZIP-kinase in which valine and leucine in the leucine zipper domain were substituted with alanine) as chimeric protein with … (enzyme)
chain: MSTFRQEDVEDHYEMGEELGSGQFAIVRKCQQKGTGMEYAAKFIKKRRLPSSRRGVSREEIEREVSILREIRHPNIITLHDVFENKTDVVLILELVSGGELFDFLAEKESLTEDEATQFLKQILDGVHYLHSKRIAHFDLKPENIMLLDKHAASPRIKLIDFGIAHRIEAGSEFKNIFGTPEFVAPEIVNYEPLGLEADMWSIGVITYILLSGASPFLGETKQETLTNISAVNYDFDEEYFSSTSELAKDFIRRLLVKDPKRRMTIAQSLEHSWIKVRRREDGARKPERRRLRAARLREYSLKSHSSMPRNTSYASFERFSRVLEDVAAAEQGLRELQRGRRQCRERVCALRAAAEQREARCRDGSAGLGRDLRRLRTELGRTEALRTRAQEEARAALLGAGGLKRRLCRLENRYDALAAQAAAEVQFARDLVRAAEQERLQAECGVR
